# Tests used:
# [1] = target: myc 6His Nek6 (Nek6 with carboxy terminal myc/6His epitopes)
# [2] = target: GST Nek7, unphosphorylated (bacterial recombinant)
# Sequence of GST Nek7, unphosphorylated (bacterial recombinant) (chain, as listed by the source): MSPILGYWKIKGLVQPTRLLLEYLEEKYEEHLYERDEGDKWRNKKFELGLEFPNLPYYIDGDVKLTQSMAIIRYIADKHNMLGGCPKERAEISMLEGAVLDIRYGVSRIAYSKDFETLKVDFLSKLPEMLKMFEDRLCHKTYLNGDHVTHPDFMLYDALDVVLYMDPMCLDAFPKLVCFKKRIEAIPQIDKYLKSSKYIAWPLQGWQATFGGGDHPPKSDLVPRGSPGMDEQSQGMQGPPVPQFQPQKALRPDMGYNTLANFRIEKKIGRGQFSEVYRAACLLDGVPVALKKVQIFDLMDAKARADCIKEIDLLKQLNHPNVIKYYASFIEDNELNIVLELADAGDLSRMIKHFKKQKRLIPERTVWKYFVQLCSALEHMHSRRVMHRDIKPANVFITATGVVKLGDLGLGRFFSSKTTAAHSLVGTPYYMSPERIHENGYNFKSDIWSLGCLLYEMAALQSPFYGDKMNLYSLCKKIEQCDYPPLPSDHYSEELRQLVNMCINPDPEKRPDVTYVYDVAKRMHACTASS
# Sequence of GST Nek6 (chain, as listed by the source): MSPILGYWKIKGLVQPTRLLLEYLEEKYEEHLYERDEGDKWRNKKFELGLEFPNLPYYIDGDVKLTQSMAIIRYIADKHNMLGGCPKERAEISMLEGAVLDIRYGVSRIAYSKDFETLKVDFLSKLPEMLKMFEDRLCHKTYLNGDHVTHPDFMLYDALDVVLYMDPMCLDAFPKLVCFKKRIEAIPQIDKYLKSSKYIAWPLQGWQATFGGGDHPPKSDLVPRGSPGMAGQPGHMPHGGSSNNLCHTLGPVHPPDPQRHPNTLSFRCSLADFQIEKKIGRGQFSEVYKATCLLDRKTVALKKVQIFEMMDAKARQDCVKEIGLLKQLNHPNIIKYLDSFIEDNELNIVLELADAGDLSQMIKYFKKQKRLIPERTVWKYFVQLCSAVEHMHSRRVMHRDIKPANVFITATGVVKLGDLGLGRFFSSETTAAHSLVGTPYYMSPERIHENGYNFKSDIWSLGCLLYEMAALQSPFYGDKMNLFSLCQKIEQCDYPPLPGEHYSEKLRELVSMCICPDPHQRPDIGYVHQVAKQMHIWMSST
# Sequence of GST Nek6 (K74M/K75M) (chain, as listed by the source K74M K75M): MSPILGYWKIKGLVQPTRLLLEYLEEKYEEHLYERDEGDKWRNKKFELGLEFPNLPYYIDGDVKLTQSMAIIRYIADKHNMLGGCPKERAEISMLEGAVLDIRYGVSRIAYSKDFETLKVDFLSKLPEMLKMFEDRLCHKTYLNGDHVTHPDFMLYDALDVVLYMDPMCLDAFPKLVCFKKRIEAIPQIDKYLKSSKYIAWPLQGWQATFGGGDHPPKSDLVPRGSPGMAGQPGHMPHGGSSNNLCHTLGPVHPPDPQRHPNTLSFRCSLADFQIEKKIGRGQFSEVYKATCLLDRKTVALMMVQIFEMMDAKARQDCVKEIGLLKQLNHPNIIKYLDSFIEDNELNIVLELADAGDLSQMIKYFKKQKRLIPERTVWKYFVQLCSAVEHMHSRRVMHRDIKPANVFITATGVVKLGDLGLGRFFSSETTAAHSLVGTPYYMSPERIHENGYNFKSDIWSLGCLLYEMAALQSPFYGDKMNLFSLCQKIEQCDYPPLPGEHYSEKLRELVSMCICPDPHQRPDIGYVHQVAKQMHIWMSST
# Sequence of myc 6His Nek6 (Nek6 with carboxy terminal myc/6His epitopes) (chain, as listed by the source): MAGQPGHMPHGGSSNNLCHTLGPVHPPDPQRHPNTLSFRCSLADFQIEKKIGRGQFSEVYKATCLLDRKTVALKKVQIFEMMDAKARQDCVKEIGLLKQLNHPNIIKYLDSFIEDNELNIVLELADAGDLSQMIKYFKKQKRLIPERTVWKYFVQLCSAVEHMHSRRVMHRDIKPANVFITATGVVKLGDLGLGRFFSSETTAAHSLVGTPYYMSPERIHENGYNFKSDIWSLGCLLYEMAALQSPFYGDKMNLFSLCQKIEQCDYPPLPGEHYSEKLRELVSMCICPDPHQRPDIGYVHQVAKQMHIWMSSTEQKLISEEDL
Protein,specific activity of coexpressed Nek6 [1],Nek6/7 kinase activity (32P into GST Cdc16 Ct) (GST Nek6),phosphorylation of Nek6 (K74M/K75M) at Ser206 in vitro (GST Nek6 (K74M/K75M)),Nek6/7 kinase activity (32P into GST Cdc16 Ct) [2]
FLAG Nercc (Δ347-732) (protein) MDYKDDDDKMSVLGEYERHCDSINSDFGSESGGCGDSSPGPSASQGPRAGGGAAEQEELHYIPIRVLGRGAFGEATLYRRTEDDSLVVWKEVDLTRLSEKERRDALNEIVILALLQHDNIIAYYNHFMDNTTLLIELEYCNGGNLYDKILRQKDKLFEEEMVVWYLFQIVSAVSCIHKAGILHRDIKTLNIFLTKANLIKLGDYGLAKKLNSEYSMAETLVGTPYYMSPELCQGVKYNFKSDIWAVGCVIFELLTLKRTFDATNPLNLCVKIVQGIRAMEVDSSQYSLELIQMVHSCLDQDPEQRPTADELLDRPLLRKRRREMEEKVTLLNAPTKRPRSSTVTEAPIAVVTSRTIRSNSSGLSIGTVFQSSSPGGGGGGGGGEEEDSQQESETPDPSGGFRGTMEADRGMEGLISPTEAMGNSNGASSSCPGWLRKELENAEFIPMPDSPSPLSAAFSESEKDTLPYEELQGLKVASEAPLEHKPQVEASSPRLNPAVTCAGKGTPLTPPACACSSLQVEVERLQGLVLKCLAEQQKLQQENLQIFTQLQKLNKKLEGGQQVGMHSKGTQTAKEEMEMDPKPDLDSDSGCLLGTDSCRPSL,a two-fold increase in the specific activity of coexpressed Nek6,–,–,–
FLAG Nercc (full-length wild type Nercc1 kinase with FLAG epitope tag) (protein) MDYKDDDDKMSVLGEYERHCDSINSDFGSESGGCGDSSPGPSASQGPRAGGGAAEQEELHYIPIRVLGRGAFGEATLYRRTEDDSLVVWKEVDLTRLSEKERRDALNEIVILALLQHDNIIAYYNHFMDNTTLLIELEYCNGGNLYDKILRQKDKLFEEEMVVWYLFQIVSAVSCIHKAGILHRDIKTLNIFLTKANLIKLGDYGLAKKLNSEYSMAETLVGTPYYMSPELCQGVKYNFKSDIWAVGCVIFELLTLKRTFDATNPLNLCVKIVQGIRAMEVDSSQYSLELIQMVHSCLDQDPEQRPTADELLDRPLLRKRRREMEEKVTLLNAPTKRPRSSTVTEAPIAVVTSRTSEVYIWGGGKSTPQKLDVIKSGCSARQVCAGNTHFAVVTVEKELYTWVNMQGGTKLHGQLGHGDKASYRQPKHVEKLQGKAIHQVSCGDDFTVCVTDEGQLYAFGSDYYGCMGVDKVAGPEVLEPMQLNFFLSNPVEQVSCGDNHVVVLTRNKEVYSWGCGEYGRLGLDSEEDYYTPQKVDVPKALIIVAVQCGCDGTFLLTQSGKVLACGLNEFNKLGLNQCMSGIINHEAYHEVPYTTSFTLAKQLSFYKIRTIAPGKTHTAAIDERGRLLTFGCNKCGQLGVGNYKKRLGINLLGGPLGGKQVIRVSCGDEFTIAATDDNHIFAWGNGGNGRLAMTPTERPHGSDICTSWPRPIFGSLHHVPDLSCRGWHTILIVEKVLNSKTIRSNSSGLSIGTVFQSSSPGGGGGGGGGEEEDSQQESETPDPSGGFRGTMEADRGMEGLISPTEAMGNSNGASSSCPGWLRKELENAEFIPMPDSPSPLSAAFSESEKDTLPYEELQGLKVASEAPLEHKPQVEASSPRLNPAVTCAGKGTPLTPPACACSSLQVEVERLQGLVLKCLAEQQKLQQENLQIFTQLQKLNKKLEGGQQVGMHSKGTQTAKEEMEMDPKPDLDSDSGCLLGTDSCRPSL,–,20-25 fold activation of Nek6/7 kinase activity,"This modification occurred, however, with a rather low efficiency",20-25 fold activation of Nek6/7 kinase activity

# From US20060052582
